Measured values published in publication PMC2650222 (Biochemistry, 2008).

Molecular target: T1, Pyrococcus furiosus RPP29 (Pyrococcus furiosus, UniProt Q8U007 1-127)
T1 sequence (looked up): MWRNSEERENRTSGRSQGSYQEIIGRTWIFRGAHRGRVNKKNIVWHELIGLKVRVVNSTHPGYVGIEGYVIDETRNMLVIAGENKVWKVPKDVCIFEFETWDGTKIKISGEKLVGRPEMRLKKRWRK
Experiment: NMR titration

B1: Pyrococcus furiosus RPP21 (natural protein)
chain: AKYNEKKEKKRIAKERIDILFSLAERVFPYSPELAKRYVELALLVQQKAKVKIPRKWKRRYCKKCHAFLVPGINARVRLRQKRMPHIVVKCLECGHIMRYPYIKEIKKRRKEKMEYGGLVPR
modifications: 15N-labelled (uniform isotope labelling)
B1: binds.
